The target of assay [1] is T1, recombinant human OX40L protein (R&D Systems, cat. #1054-OX) (human, UniProt P23510 51-183).
T1 construct: Bought soluble recombinant protein; also called rhOX40L; recombinant soluble OX40L
T1 sequence: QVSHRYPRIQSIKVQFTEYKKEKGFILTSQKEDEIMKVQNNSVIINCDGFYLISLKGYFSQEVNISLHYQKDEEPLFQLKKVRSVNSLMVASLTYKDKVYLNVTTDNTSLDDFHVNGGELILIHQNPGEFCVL
The experiment in a line: SPR steady state, Biacore T200; OX40L immobilised on CM5, FcFab in solution. As to the method: (§1) Recombinant OX40L proteins (human OX40L protein, R&D systems, cat. #1054-OX; cynomolgus monkey OX40L, Novoprotein cat. #CP72) were immobilized onto Biacore CM5 sensor chips and anti-OX40L antibodies were bound to this surface at a range of concentrations. The response at steady state was measured with a Biacore T200 instrument (GE Healthcare) and plotted against the concentration of antibody and fit to a 1:1 binding model. The steady state KD was determined as the antibody concentration at a response equal to half the maximal response (Rₘₐₓ).
As with the IgG clones, binding affinity to human OX40L was determined for all twelve FcFabs using steady state affinity assay as described in section 1.1.7 of Example 1. […]
(In general: SPR reads the build-up and loss of mass on a sensor chip optically.)

Assay [2] concerns the target T1, recombinant human OX40L protein (R&D …). Put plainly: cell-based or functional assay.
For assay [3], the target named is T2, AVI-GST-His6-hOX40L (human, UniProt P23510 51-183).
T2 sequence: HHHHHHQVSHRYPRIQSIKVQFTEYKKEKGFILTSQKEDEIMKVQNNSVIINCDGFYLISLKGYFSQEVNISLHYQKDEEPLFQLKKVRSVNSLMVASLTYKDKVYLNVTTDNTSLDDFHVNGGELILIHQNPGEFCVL
Put plainly: cell-based or functional assay.

The next assay has as its target T3, mouse OX40L (mouse, UniProt P43488 51-198, limits assumed).
T3 sequence: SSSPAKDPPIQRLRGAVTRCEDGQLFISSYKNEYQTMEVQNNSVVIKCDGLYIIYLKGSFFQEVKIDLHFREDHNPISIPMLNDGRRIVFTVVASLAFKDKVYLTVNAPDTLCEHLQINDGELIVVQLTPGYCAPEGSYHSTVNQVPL
Put plainly: flow cytometry on CHO-S cells / ELISA on recombinant protein (sentence does not say which). Background: A flow cytometer gives signals particle by particle.

The target in assay [4] is T1, recombinant human OX40L protein (R&D …). The experiment in a line: SPR steady state, Biacore T200; OX40L immobilised on CM5, antibody in solution. As to the method:
as §1
Steady state affinity assay was performed as described in section 1.1.7 of Example 1.

Assay [5] has as its target T4, recombinant cynomolgus monkey OX40L (Novoprotein cat. #CP72) (cynomolgus monkey, UniProt P23510 51-183 (human entry), limits assumed).
T4 construct: Bought protein; also called cynomolgus OX40L
T4 chain: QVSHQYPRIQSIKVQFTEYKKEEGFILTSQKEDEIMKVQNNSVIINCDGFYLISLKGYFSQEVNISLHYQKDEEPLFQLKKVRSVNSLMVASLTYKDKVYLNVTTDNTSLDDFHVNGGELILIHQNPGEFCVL
The experiment in a line: flow cytometry on CHO-S-OX40L cells / ELISA on recombinant OX40L (sentence does not say which).

Assay [6] concerns the target T1, recombinant human OX40L protein (R&D …). Put plainly: cell-based or functional assay. This is another data set of the same source.
Assay [7] deals with T2, AVI-GST-His6-hOX40L. The experiment in a line: cell-based or functional assay. This is another data set of the same source.

Read-outs that look alike come from different tables or passages of the source.

B1: 85F12 (FcFab) (antibody)
chain 1: EPKSSDKTHTCPPCPAPPVAGPSVFLFPPKPKDTLMISRTPEVTCVVVDVSHEDPEVKFNWYVDGVEVHNAKTKPREEQYNSTYRVVSVLTVLHQDWLNGKEYKCAVSNKALPSSIEKTISKAKGQPREPQVYTLPPSREEMTKNQVSLTCLVKGFYPSDIAVEWESNGQPENNYKTTPPVLDSDGSFFLYSKLTVDKSRWQQGNVFSCSVMHEALHNHYTQKSLSLSPGAGGGGSGGGGSGGGGSQVQLQQSGPGLVKPSQTLSLTCAISGDSVSSNSAVWNWIRQSPSRGLEWLGRTDYRSKWNNDYAVSVKSRITINPDTSKNQFSLQLNSVTPEDTAVYYCARGDAGMASFDYWGQGTLVTVSSASTKGPSVFPLAPSSKSTSGGTAALGCLVKDYFPEPVTVSWNSGALTSGVHTFPAVLQSSGLYSLSSVVTVPSSSLGTQTYICNVNHKPSNTKVDKRVEPKSC
chain 2: SSELTQPPSVSVSPGQTASITCSGDKLGDKYACWYQQKAGQSPVVVIYQDRKRPSGIPERFSGSNSGNTATLTISGTQAMDEADYYCQTWDRRTAVFGGGTKLTVLGQPKAAPSVTLFPPSSEELQANKATLVCLISDFYPGAVTVAWKADSSPVKAGVETTTPSKQSNNKYAASSYLSLTPEQWKSHKSYSCQVTHEGSTVEKTVAPTECS
The term Kd denotes the concentration at which binding is half-saturated. On to B1, for which the equilibrium dissociation constant (Kd) in assay [1] came to 0.0341 µM. In addition, the “Primary T cell activation assay IC50” value in assay [2] is more than 0.161 µM. Also, in the assay with AVI-GST-His6-hOX40L [3], the “OX40L neutralization/OX40-HEK Reporter IC50” value was more than 0.161 µM.

B2: 85F12 (IgG) (antibody)
heavy: not shown
light: SSELTQPPSVSVSPGQTASITCSGDKLGDKYACWYQQKAGQSPVVVIYQDRKRPSGIPERFSGSNSGNTATLTISGTQAMDEADYYCQTWDRRTAVFGGGTKLTVLGQPKAAPSVTLFPPSSEELQANKATLVCLISDFYPGAVTVAWKADSSPVKAGVETTTPSKQSNNKYAASSYLSLTPEQWKSHKSYSCQVTHEGSTVEKTVAPTECS
Consider B2, for which the figures for the binding result (in the assay with mouse OX40L; in assay [5]) were “no binding” and “binds”, respectively. Further, the Kd in assay [4] came out at 0.0756 µM.

B3: 98C01 (IgG) (antibody)
heavy: not shown
light: SYELTQPPSVSVALGQTARITCGGNNIENKNVHWYQQKPGQAPVLVIYRDSNRPSGIPERFSGSNSGNTATLSINRAQAGDEADYYCQVWDSNTVVFGGGTKLTVLGQPKAAPSVTLFPPSSEELQANKATLVCLISDFYPGAVTVAWKADSSPVKAGVETTTPSKQSNNKYAASSYLSLTPEQWKSHKSYSCQVTHEGSTVEKTVAPTECS
On to B3, for which the figures for the binding result (with mouse OX40L; in assay [5]) were “no binding” and “binds”, respectively. The “Primary T cell activation assay IC50” value in assay [6] stood at 0.0129 µM. For the same molecule, the “OX40L neutralization/OX40-HEK Reporter IC50” value with AVI-GST-His6-hOX40L [7] came to 0.0036 µM. For the same molecule, the Kd in assay [4] turned out to be 0.0177 µM.

B4: 85F10 (FcFab) (antibody)
chain 1: EPKSSDKTHTCPPCPAPPVAGPSVFLFPPKPKDTLMISRTPEVTCVVVDVSHEDPEVKFNWYVDGVEVHNAKTKPREEQYNSTYRVVSVLTVLHQDWLNGKEYKCAVSNKALPSSIEKTISKAKGQPREPQVYTLPPSREEMTKNQVSLTCLVKGFYPSDIAVEWESNGQPENNYKTTPPVLDSDGSFFLYSKLTVDKSRWQQGNVFSCSVMHEALHNHYTQKSLSLSPGAGGGGSGGGGSGGGGSEVQLLESGAGLLKPSETLSLTCAVYGGSFSDYYWSWIRQPPGKGLEWIGEINHSGSTNYNPSLKSRVTISVDTSKNQFSLKLSSVTAADTAVYYCARKRGANFFDDWGQGTLVTVSSASTKGPSVFPLAPSSKSTSGGTAALGCLVKDYFPEPVTVSWNSGALTSGVHTFPAVLQSSGLYSLSSVVTVPSSSLGTQTYICNVNHKPSNTKVDKRVEPKSC
chain 2: SYELTQPLSVSVALGQTARITCGGNNIENKNVHWYQQKPGQAPVLVIKRDSNRPSGIPERLSGSNSGNTATLTISRAQAGDEADYYCQVWDSSTVVFGGGTKLTVLGQPKAAPSVTLFPPSSEELQANKATLVCLISDFYPGAVTVAWKADSSPVKAGVETTTPSKQSNNKYAASSYLSLTPEQWKSHKSYSCQVTHEGSTVEKTVAPTECS
As to B4, the Kd in assay [1] stood at 0.0501 µM. For the same molecule, the “Primary T cell activation assay IC50” value in assay [2] was 0.0063 µM. In addition, in the assay with AVI-GST-His6-hOX40L [3], the “OX40L neutralization/OX40-HEK Reporter IC50” value was more than 0.161 µM.

B5: 98E10 (IgG) (antibody)
heavy: not shown
light: SYELTQPLSVSVALGQTARITCGGNNIENKNVHWYQQMPGQAPVLVIYRDSNRPSGIPERFSGSNSGNTATLTINRAQAGDEADYYCQVWDSNTVVFGGGTKVTVLGQPKAAPSVTLFPPSSEELQANKATLVCLISDFYPGAVTVAWKADSSPVKAGVETTTPSKQSNNKYAASSYLSLTPEQWKSHKSYSCQVTHEGSTVEKTVAPTECS
Regarding B5, the binding result with mouse OX40L is given as “no binding”; in assay [5], “binds”. Also, the “Primary T cell activation assay IC50” value in assay [6] is 0.0088 µM. Further, the “OX40L neutralization/OX40-HEK Reporter IC50” value in the assay with AVI-GST-His6-hOX40L [7] was 0.0054 µM. Moreover, in assay [4], the Kd worked out at 0.0328 µM.

B6: 85F10 (IgG) (antibody)
heavy: not shown
light: SYELTQPLSVSVALGQTARITCGGNNIENKNVHWYQQKPGQAPVLVIKRDSNRPSGIPERLSGSNSGNTATLTISRAQAGDEADYYCQVWDSSTVVFGGGTKLTVLGQPKAAPSVTLFPPSSEELQANKATLVCLISDFYPGAVTVAWKADSSPVKAGVETTTPSKQSNNKYAASSYLSLTPEQWKSHKSYSCQVTHEGSTVEKTVAPTECS
Take B6: the binding result with mouse OX40L is “no binding”; in assay [5] it was “binds”. Also, the “OX40L neutralization/OX40-HEK Reporter IC50” value in the assay with AVI-GST-His6-hOX40L [7] turned out to be 0.0546 µM. Further, in assay [4], the Kd turned out to be 0.0282 µM.

B7: 30F02 (IgG) (antibody)
heavy: not shown
light: SYVLTQPLSVSVALGQTARITCGGNNIGDKNVHWYQQKPGQAPVLVISRDSNRPSGIPERFSGSNSGNTATLTISRAQAGDESDYYCQVWDSSTVVFGGGTKVTVLGQPKAAPSVTLFPPSSEELQANKATLVCLISDFYPGAVTVAWKADSSPVKAGVETTTPSKQSNNKYAASSYLSLTPEQWKSHKSYSCQVTHEGSTVEKTVAPTECS
Turning to B7, the figures for the binding result (with mouse OX40L; in assay [5]) were “no binding” and “binds”, respectively. Further, the “Primary T cell activation assay IC50” value in assay [6] was 0.0124 µM. Also, the “OX40L neutralization/OX40-HEK Reporter IC50” value with AVI-GST-His6-hOX40L [7] came out at 0.0727 µM. Further, in assay [4], the Kd came to 0.0539 µM.

B8: 68F03 (IgG) (antibody)
heavy: not shown
light: SFELTQPLSVSVALGQTARITCGGINIENKNVHYYQQKPGQAPVLVIYRDTNRPSGIPERFSGSNSGNTATLTISRAQAGDEADYYCQVWDSNTVIFGGGTKVTVLGQPKAAPSVTLFPPSSEELQANKATLVCLISDFYPGAVTVAWKADSSPVKAGVETTTPSKQSNNKYAASSYLSLTPEQWKSHKSYSCQVTHEGSTVEKTVAPTECS
Consider B8, for which, in assay [6], the “Primary T cell activation assay IC50” value turned out to be 0.0188 µM. The “OX40L neutralization/OX40-HEK Reporter IC50” value with AVI-GST-His6-hOX40L [7] was found to be 0.0057 µM. Moreover, the Kd in assay [4] was found to be 0.0258 µM.

B9: 84E11 (IgG) (antibody)
heavy: not shown
light: SSELTQDPAVSVALGQTVRITCQGDSLRNYFANWYQQKPGQAPVLVIYGKNNRPSGIPDRFSGSSSGNTASLTITGAQAEDEADYYCNSRDSSGYHVVFGGGTKLTVLGQPKAAPSVTLFPPSSEELQANKATLVCLISDFYPGAVTVAWKADSSPVKAGVETTTPSKQSNNKYAASSYLSLTPEQWKSHKSYSCQVTHEGSTVEKTVAPTECS
On to B9, for which the binding result with mouse OX40L is reported as “no binding”; in assay [5], “binds”. For the same molecule, the “Primary T cell activation assay IC50” value in assay [6] was determined as 0.0088 µM. In the assay with AVI-GST-His6-hOX40L [7], the “OX40L neutralization/OX40-HEK Reporter IC50” value turned out to be 0.0177 µM. Further, in assay [4], the Kd is 0.0395 µM.

The values are drawn from patent publication US20240262922A1 (Merck KGaA, published 2024).
